Results reported in patent publication US20210087243A1.

Molecular target: T1, linear CGQKLVG-conjugated-BSA
T1 sequence (peptide, conjugated to BSA): CGQKLVG
Assay: SPR direct binding (MASS-1), linear peptide-BSA immobilised, supernatant flowed

binding response (RU): 7.7 RU
B1: 305-61 (7E9) (antibody, mouse IgG3, V domains shown)
VH: QVQLQQSGAELVRPGASVTLSCKASGYTFTDYEMHWVKQTPVHGLEWIGAIDPETGDTAYNQEFKGKATLTADKSSSTAYMELRSLTSEDSAVYYCTSPIYYDYDWFAYWGHGTLVTVSA
VL: DIVMSQSPSSLAVSAGEKVTMSCKSSQSLLNNRTRKNYLAWYQQKPGQSPKLLIYWASTRESGVPDRFTGSGSGTDFTLTISSVQAEDLAVYYCKQSYNLRTFGGGTKLEIKR
